Laboratory results published in patent US20210155689A1 (SHANGHAI PHARMAEXPLORER, published 2021).

T1: human LAG-3 on cells (HEK293-hLAG-3 stable cell line) (human, UniProt P18627 23-525)
T1 sequence: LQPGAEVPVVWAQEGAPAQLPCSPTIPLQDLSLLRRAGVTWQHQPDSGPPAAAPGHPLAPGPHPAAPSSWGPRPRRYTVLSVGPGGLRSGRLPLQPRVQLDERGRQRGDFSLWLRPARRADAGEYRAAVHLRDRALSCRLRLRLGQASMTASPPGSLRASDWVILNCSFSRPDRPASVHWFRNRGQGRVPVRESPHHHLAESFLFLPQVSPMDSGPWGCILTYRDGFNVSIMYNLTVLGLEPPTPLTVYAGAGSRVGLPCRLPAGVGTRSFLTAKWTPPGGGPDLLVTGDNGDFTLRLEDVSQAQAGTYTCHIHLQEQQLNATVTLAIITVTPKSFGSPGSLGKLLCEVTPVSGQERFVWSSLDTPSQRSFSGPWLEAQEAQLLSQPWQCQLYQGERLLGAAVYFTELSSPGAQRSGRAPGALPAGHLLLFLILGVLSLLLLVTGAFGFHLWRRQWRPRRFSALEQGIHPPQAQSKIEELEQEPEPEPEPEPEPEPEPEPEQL

T2: LAG-3-hFc protein (human LAG-3 extracellular region with hFc tag) (human, UniProt P18627 23-450)
T2 construct: also called hLAG-3-hFc; LAG-3 protein; not shown: human IgG Fc fragment (hFc) of the pCpC vector
T2 sequence: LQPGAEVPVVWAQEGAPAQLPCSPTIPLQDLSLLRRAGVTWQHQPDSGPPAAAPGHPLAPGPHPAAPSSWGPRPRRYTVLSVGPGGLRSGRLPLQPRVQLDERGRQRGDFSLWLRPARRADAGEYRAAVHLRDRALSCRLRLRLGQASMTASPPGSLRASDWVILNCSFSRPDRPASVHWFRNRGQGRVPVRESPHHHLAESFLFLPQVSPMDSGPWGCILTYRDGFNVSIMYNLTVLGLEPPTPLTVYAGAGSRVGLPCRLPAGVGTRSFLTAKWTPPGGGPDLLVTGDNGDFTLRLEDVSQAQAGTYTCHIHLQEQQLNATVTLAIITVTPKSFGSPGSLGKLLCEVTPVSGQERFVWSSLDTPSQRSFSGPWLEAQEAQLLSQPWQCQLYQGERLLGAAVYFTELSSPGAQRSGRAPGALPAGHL

T3: human LAG-3 protein with hFc tag (hLAG-3-hFc protein) (human, UniProt P18627 23-450)
T3 construct: also called immunogen 1; LAG-3 extracellular domain protein; not shown: human IgG Fc fragment (hFc) of the pCpC vector
T3 sequence: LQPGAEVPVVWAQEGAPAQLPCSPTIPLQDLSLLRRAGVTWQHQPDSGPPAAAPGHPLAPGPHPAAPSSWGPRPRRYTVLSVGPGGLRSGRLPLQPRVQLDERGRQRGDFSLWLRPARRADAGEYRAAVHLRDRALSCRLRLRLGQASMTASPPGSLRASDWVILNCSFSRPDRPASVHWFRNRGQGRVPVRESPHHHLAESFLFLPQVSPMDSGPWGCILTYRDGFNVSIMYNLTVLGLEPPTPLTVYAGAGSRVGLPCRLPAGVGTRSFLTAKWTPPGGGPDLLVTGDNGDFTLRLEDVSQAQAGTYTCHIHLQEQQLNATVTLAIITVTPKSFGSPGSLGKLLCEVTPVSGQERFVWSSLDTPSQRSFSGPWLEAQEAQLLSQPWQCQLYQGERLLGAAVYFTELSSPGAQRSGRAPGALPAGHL


Key:
[1] = target: T1, human LAG-3 on cells (HEK293-hLAG-3 …); experiment: FACS, HEK293-hLAG-3, antibody 0.064 nM
Source text: The pIRES plasmid with the monkey-derived full-length gene was transfected into the HEK293 cell line to construct a HEK293 stable cell line containing monkey LAG-3 (herein referred to as HEK293-cLAG-3 stable cell line). The HEK293-hLAG-3 stable cell line and HEK293-cLAG-3 stable cell line were expanded in a T-75 cell culture flask to a 90% confluence. The medium was aspirated, and the cells were washed with HBSS (Hanks' Balanced Salt Solution) 1-2 times, then treated with a enzyme-free cell dissociation fluid (Versene solution: Life technology) and the cells were collected. The cells were washed with HBSS buffer for 1-2 times. After counted, the cells were diluted with HBSS to 1-2×10⁶ cells per ml, added with 1% goat serum blocking solution, incubated on ice for 20-30 minutes, and then washed with HBSS for 2 times by centrifugation. The collected cells were suspended in the FACS buffer (HBSS+1% BSA) to 2×10⁶ cells/ml, added as 100 microliters per well to a 96-well FACS reaction plate, added with 100 microliters per well of the antibody sample to be tested, incubated on ice for 1-2 hours. The plate was washed twice with the FACS buffer by centrifugation, added with 100 microliters of fluorescent (Alexa 488)-labeled secondary antibodies per well, and incubated on ice for 0.5-1.0 hours. The plate was washed 2-3 times with FACS buffer by centrifugation, added with 100 μl fixative solution (4% Paraformaldehyde) per well to suspend the cells. 5-10 minutes later, it was washed 1-2 times with FACS buffer by centrifugation. The cells were suspended with 100 microliters of FACS buffer, FACS (FACSCalibur, BD) was used for detection and the results were analyzed.

[2] = target: T1, human LAG-3 on cells (HEK293-hLAG-3 …); experiment: cell-based or functional assay
[3] = target: T2, LAG-3-hFc protein (human LAG-3 …); experiment: FACS, inhibition of LAG-3-hFc binding to MHC II on Raji cells, antibody 7.407 nM
Protocol: (§1) The FACS reaction plate incubating the Raji cells was centrifuged to discard the supernatant. The above mixture was added as 100 μl per well to Raji cells and incubated on ice for 1-2 hours. The plate was washed twice with blocking solution (PBS, 2% fetal bovine serum) by centrifugation, added with 100 microliters of fluorescent (Alexa 488)-labeled secondary antibodies per well, and incubated on ice for 1.0 hours. The plate was washed 2-3 times by centrifugation with blocking solution (PBS, 2% fetal bovine serum), added with 100 microliters of PBS per well to suspend cells, and detected using FACS (FACS Calibur, BD) and the results were analyzed. Wherein, the IgG control was murine IgG, and the data in the table is the inhibition rate (%).

[4] = target: T3, human LAG-3 protein with hFc tag …; experiment: FACS, blocks LAG-3-hFc binding to MHC II on Raji; 200.000 nM
Protocol: as §1

Binder	Mean fluorescence intensity [1]	IL-2 production, antigen-specific T lymphocyte stimulation test, 0.016 ug/ml, N = 1 [2] [pg/mL]	IL-2 production, antigen-specific T lymphocyte stimulation test, 0.016 ug/ml, N = 2 [2] [pg/mL]	IL-2 production, antigen-specific T lymphocyte stimulation test, 0.08 ug/ml, N = 1 [2] [pg/mL]	IL-2 production, antigen-specific T lymphocyte stimulation test, 0.08 ug/ml, N = 2 [2] [pg/mL]	IL-2 production, antigen-specific T lymphocyte stimulation test, 0.4 ug/ml, N = 1 [2] [pg/mL]	IL-2 production, antigen-specific T lymphocyte stimulation test, 0.4 ug/ml, N = 2 [2] [pg/mL]	IL-2 production, antigen-specific T lymphocyte stimulation test, 2 ug/ml, N = 1 [2] [pg/mL]	IL-2 production, antigen-specific T lymphocyte stimulation test, 2 ug/ml, N = 2 [2] [pg/mL]	IL-2 production, antigen-specific T lymphocyte stimulation test, 10 ug/ml, N = 1 [2] [pg/mL]	IL-2 production, antigen-specific T lymphocyte stimulation test, 10 ug/ml, N = 2 [2] [pg/mL]	Inhibition rate (%) [3] [%]	Inhibition rate (%) [4] [%]
405B8H3 mouse-human chimeric antibody (antibody, V domains shown, also called mAb103-405B8H3) VH: QVQLQQSGAELVRPGASVTLSCKASGYTFTDYEMHWVKQTPVHGLEWIGATDPETGNSAYNQKFKGKAIMTADKSSSTAYMELRSLTSEDSAVYYCISTGWNDWGQGTSLTVSS VL: DIKMTQSPSSMYASLGERVTITCKASQDINSYLSWFQQKPGKSPKTLIYRADRLLDGVPSRFSGSGSGQDYSLTISSLEYGDMGIYYCLQYDEFPYTFGGGTKLEIK	6.3	366	420	666	559	883	986	876	825	770	789	95.1	–
105F1E10 mouse-human chimeric antibody (antibody, V domains shown, also called mAb009-105F1E10) VH: EVQLQQSGPELVKPGASVKMSCRASGYTFTDFKMHWMKQSHGKSLEWIGYIAPNNGGTAYNQKFRGKATLTVNESSNTAYMELRSLTSEDSAVYYCVDWDDVDYWGQGTTLTVSS VL: DIKMTQSPSSMYASLGERVTITCKASQDINSYLSWFQQKSGKSPKTLIYRANRLVDGVPSRFSGSGSGQDYSLTISSLEYEDMGIYYCLQYVEFPLTFGAGTKLELK	5.1	452	420	437	467	779	757	853	792	850	627	67	–
409B11E12 (mouse antibody purified from hybridoma) (antibody, V domains shown, also called mAb104-409B11E12) VH: QVQLQQSGAELVRPGASVTLSCKASGYTFTDYEMHWVKQTTVHGLEWIGATDPETSYSAYNQKFKGKAILTADKSSSTAYMELRSLTSEDSAVYYCIATGWNDWGQGTSLTVSS VL: DLKMTQSPSSMYASLGERVTITCKASQDINSYLSWFQQKPGKSPKTLIYRANRLLDGVPSRFSGSGSGQDYSLTISSLEYEDMGIYYCLQYDEFPYTFGGGTKLEIK	–	–	–	–	–	–	–	–	–	–	–	–	95
409D4E10 (mouse antibody purified from hybridoma) (antibody, V domains shown, also called mAb112-409D4E10) VH: QVQLQQSGAELVRPGASVTLSCKASGNTFTDYEMHWVKQTPVHGLEWIGATDPETDNTAYNQKFKGKAILTTDKSSSTAYMELRSLTSEDSAVYYCITSGWNDWGQGTSLTVSS VL: DIKMTQSPSSMYASLGERVTITCKASQDINSYLSWFQQKPGKSPKTLIYRANRLLDGVPSRFSGSGSGQDYSLTISSLEYEDMGIYYCLQYNEFPYTFGGGTKLEIK	–	–	–	–	–	–	–	–	–	–	–	–	95.9
409B11E12 mouse-human chimeric antibody (antibody, V domains shown, also called mAb104-409B11E12) VH: QVQLQQSGAELVRPGASVTLSCKASGYTFTDYEMHWVKQTTVHGLEWIGATDPETSYSAYNQKFKGKAILTADKSSSTAYMELRSLTSEDSAVYYCIATGWNDWGQGTSLTVSS VL: DLKMTQSPSSMYASLGERVTITCKASQDINSYLSWFQQKPGKSPKTLIYRANRLLDGVPSRFSGSGSGQDYSLTISSLEYEDMGIYYCLQYDEFPYTFGGGTKLEIK	6.3	402	433	525	555	835	954	914	915	671	795	95.1	–
